B1: TPR t1 (parent)
chain: GACCAAUCUGCCCUCAGAGCUCGAGAACAUCUUCGGAUGCAGAGGAGGCAGGCUUCGGUGGCGCGAUAGCGCCAACGUCCUCAACCUCCAAUGCAUCCCACCACAUGAUGAUGCCUGAAGAGCCUUGGUUUUUUG

Variants of: B1
Assay: polymerase ribozyme fitness, log enrichment relative to wild type (log ratio); higher = more active; in vitro selection for triplet polymerase activity
Outline: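 After PCR construction and transcription, each subunit's mutant library from a heterodimeric triplet polymerase ribozyme was annealed with a biotinylated primer, the partner subunit and triplets. Incubation was frozen, at −7 °C, and extended constructs were gel-excised, bound to streptavidin beads and amplified by RT-PCR, in one selection round done in triplicate. Fitness is the logarithm of a genotype's enrichment divided by that of the wild type, from inverse-variance-weighted replicate averages of Illumina-sequenced inputs and outputs. The base of the logarithm is 2, and genotypes needed ≥10 input reads and ≥1 read per output.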

| Variant | polymerase ribozyme fitness (log ratio) |
| --- | --- |
| G23A G45A | -5.16 |
| G48C C56U C101A U112C G135C | -0.346 |
| C12A A41G G63A | -2.29 |
| G42U G48A G110C A111G | -6.19 |
| U81A A90U | -2.41 |
| A50G U129G | -0.967 |
| G47C U55G G63A C104U | -3.2 |
| C3G A95G C101A A111C | -2.16 |
| G60C C86U U106G G120A | -2.2 |
| C53U G71U | -0.192 |
| C86U A100C G110U U129C | -4.69 |
| A46U C104U | -0.991 |
| C15U G52A A91G | -2.95 |
| A41C C70A | -3 |
| C11A A37G U81G | -5.66 |
| G51U A111U | -6.02 |
| C62U C98A | -5.51 |
| A6U G42U C49U C101U G110U C123G | -6.14 |
| A2C U9G G61U G110A | -2.69 |
| C11A G69U C70U | -2.77 |
| C88U C123A | 1.43 |
| C11A C62A | -2.86 |
| C8U A16U A37U G52C C56G C79A G110U U126A | -4.2 |
| A18G G127U | -4.06 |

| Variant | polymerase ribozyme fitness (log ratio) |
| --- | --- |
| G52A G69A A90C U116G G117C A118G | -6.12 |
| G45A C70G G110C | -6.17 |
| U9G G60A A90C | -0.347 |
| A29U A46G C88U C97G | -4.71 |
| A27U A29C G35C A68U U109G A119G G127A | -6.64 |
| U7G G19A G44C C114G G120U | -3.21 |
| C34U C88G | -3.99 |
| A68U G120A | -3.93 |
| A6U C13A C40U C62A A95U | -3.6 |
| A26G C70G | -3.51 |
| C12G A16U G48A C82A | -3.19 |
| U78A G107C | -6.06 |
| C49U C89U A105U | -4.2 |
| A26G A74C C88A C115U | -2.88 |
| C31U G69U U78C A118G | -3.16 |
| A43U G110A | -3.03 |
| C4G U9C G57A G63C C79A A84C C89U | -4.8 |
| G51C G60A A111G | -4.94 |
| G19A C20U | -1.54 |
| A46G G57A C73U A83G U112C | -0.119 |
| C11G G35U C82A A105C C123A C124A | -5.28 |
| A43G G60U | -1.12 |
| A6U U87C U96G G120A G122C | 0.592 |
| C53G G60A C104A U125A U131A | -3.15 |

| Variant | polymerase ribozyme fitness (log ratio) |
| --- | --- |
| C49U C73U | -0.609 |
| C76U G120A | 1.69 |
| C8G G17U | -0.274 |
| U7A A29U G60U C97U G113C G120U U133A | -4.07 |
| C3U A27C U130C | -2.28 |
| C8A G60A | -0.104 |
| G45A A50U | -1.05 |
| C15A C49G | -2.46 |
| U9G G44U G58A G60U C102U U106A U133C | -3.81 |
| U9G C20A U131A | -1.99 |
| U112A U129A | 0.929 |
| G35A C73A | -3.7 |
| C13G C40A G63C G117U U133G | -6.59 |
| C64A C70G A95U G110C C114U | -5.6 |
| G52A C73U C82U | -0.555 |
| A29G G71A G120U U132A | -2.06 |
| C11G G65C | -5.03 |
| A18U G44A U54A U59A C86U U106A | -4.83 |
| C11A U59A | -1.59 |
| C28U A50U C70A U106A G110A C114A | -5.71 |
| G61U U109A | -3.77 |
| G61U U92C | -1.84 |
| G25U A46G | -6.02 |
| G17U U55A | -2.43 |

| Variant | polymerase ribozyme fitness (log ratio) |
| --- | --- |
| G120U C124U | 1.38 |
| A41G A68G | -3.96 |
| G120C G127A | 0.0309 |
| C72U A91U A100U A119U | -3.58 |
| U78C U87C C115U | -0.381 |
| G113U A119C G122U | -4.35 |
| A2C C4A A84U C115G | -5.82 |
| C13U C104A | -1.47 |
| A43C C82A | -2.48 |
| G45A C49A G110U | -2.18 |
| A43C G61A C101G | -4.23 |
| U9C C49A C123U | 1.45 |
| U54A G60C G113C | -2.11 |
| C4A G48U G120U | -3.84 |
| C56A C114U C115U U131C | -5.83 |
| G61A C115A U129A U132A | -3.87 |
| G19U G61A | -3.31 |
| C94U A95G | -0.3 |
| C8G G61C | -1.09 |
| C89A A91U | -1.18 |
| C64G U81G C101A G113A | -6.96 |
| A37G U78A C82G A119U | -0.542 |
| C34A G71U A75G | -4.12 |
| A2C C13G C15U C72U | -4.37 |

| Variant | polymerase ribozyme fitness (log ratio) |
| --- | --- |
| C53U U112G | -0.00138 |
| A43C U59C C80A | -6.52 |
| C13A G39C G120A | -0.0336 |
| G48A A66U U78G | -1.56 |
| C3U C13A A29U G44C C124G U132C | -3.39 |
| U21G C56U U78G C86U A121G | -0.445 |
| A27U G61C | -5.97 |
| G52U C53G U54C U78C C97U | -1.14 |
| A37U G57C C85U U125A | -1.95 |
| A5U G57A | -0.568 |
| A74U U87A | -0.842 |
| C28A G60A | -2.44 |
| C3G U112A | -0.0942 |
| C12G C115G | -2.46 |
| G35C C72U C99A C102U U116C U130G | -6.33 |
| A66C G113A | -1.78 |
| U9C G39A A41C C72G A84C C86A C99A A121U | -6.53 |
| U81C U106A | 0.0236 |
| C8A A29U G69U | -0.0842 |
| A5U G47C C62U G113C A118U | -4.96 |
| C12G G71C U96A A108G C123G | -4.58 |
| G93C U106C U112C | 0.785 |
| A37G C115U | -0.85 |
| C12A C53G G69A C115A U116A | -7.23 |

| Variant | polymerase ribozyme fitness (log ratio) |
| --- | --- |
| C13G C56A A74G C101G U112C U130A | -3.67 |
| G128U U129C | -0.805 |
| A24U G69U C114G | -7.51 |
| G36U U78C C101U C123A | -1.09 |
| C20G U21A C62U U112A | -1.31 |
| C15U A18G A37G U54A A100U C115A | -5.29 |
| C15U G48C C72G U112A | -0.505 |
| C53A C85A G135U | -2.53 |
| G113A G120U | -2.35 |
| C72G C102U U106G | -4.73 |
| G113A G127U | -3.27 |
| C11G A16G G60A C88U C124A | -0.731 |
| C49U G52U G61A G120A | -0.105 |
| C102U A111U U129C | -6.46 |
| C13A A37C A118U | -1.38 |
| A26G G61C C86U | -4.37 |
| G69U C86G U96G C114A | -2.17 |
| C22G C34U U38A U54C A83C U106G U109A C114G | -6.61 |
| G45A G48A C86A C89U | -2.36 |
| A27U A50C | -3.87 |
| U14A C56G | -3.51 |
| A6U A50G C97U C115U | -2.3 |
| G48U C62G A91U C123U U125A | -5.93 |
| U54G G60A U92A G107C G117A | -6.96 |

| Variant | polymerase ribozyme fitness (log ratio) |
| --- | --- |
| C3U C11U U87A C124U | 0.336 |
| C72G G127C | -0.368 |
| A103G G113A | -4.15 |
| A6C U30G G63A A91U A100G C104G U109G | -5.44 |
| U9C G45A C124U U126A U133A | -0.505 |
| C49G C88A G107U | -6.08 |
| C13U C15A G63C | -4.06 |
| U106C U116G | -2.03 |
| C3A G117C | -3.87 |
| G51A U112C | -2.05 |
| A41G C56A | -1.81 |
| G71U U112C | 1.34 |
| U7A C22U G39A G44U C53U C56G G63A A68U C124A U125A | -6.98 |
| A41C A46G | -1.13 |
| C4A C115U G120A U131A | -5.05 |
| G45C U54C C73A U81A G93C A111C | -4.76 |
| C4U A27G | -2.96 |
| C76U U81A | -0.892 |
| A41C G77C C82U | -1.51 |
| C4G A43U A46G G113A | -3.76 |
| C11U U21G G42A U96G | -4.94 |
| U21A C49G C62A G113C | -4.99 |
| C15U C76G G77C C123A | -2.59 |

Reference: the RNAGym collection of RNA variant scans (doi:10.1073/pnas.2313332121)
